Source: the MegaScale stability set (Tsuboyama et al. 2023)

B1: 5KPH (parent)
chain: EEKRQVKQVAKEKLLEQSPNSKVQVRRVQKQGNTIRVELELRTNGKKENYTVEVERQGNTWTVKRITRT

Variants of: B1
Assay: folding stability dG (cDNA display proteolysis); higher = more stable
Conditions: PBS, room temperature

| Variant | folding stability dG [kcal/mol] |
| --- | --- |
| S21D | 2.23 |
| N49P | 2.7 |
| N49I | 4.22 |
| N49G | 3.81 |
| N49E | 3.61 |
| E2S | 3.47 |
| E2D | 3.9 |
| E2M | 3.58 |
| E2T | 3.74 |
| E2H | 3.5 |
| E2C | 3.69 |
| V52M | 3.22 |
| V52T | 1.61 |
| V52L | 3.48 |
| V52Y | 1.78 |
| V52Q | -0.464 |
| V25D | 1.17 |
| V25G | 1.64 |
| V25H | 2.19 |
| V25A | 2.95 |
| V25K | 1.3 |
| G32E | 3.1 |
| G32M | 2.99 |
| G32K | 3.11 |

| Variant | folding stability dG [kcal/mol] |
| --- | --- |
| G32N | 3.26 |
| S18D | 3.23 |
| S18F | 4.68 |
| S18A | 3.8 |
| S18H | 4.66 |
| S18M | 4.05 |
| S18T | 3.35 |
| R27Y | 3.72 |
| R27T | 3.37 |
| R27H | 3.71 |
| R27S | 3.79 |
| R27A | 3.61 |
| W61N | 1.83 |
| W61K | 0.975 |
| W61P | 1.94 |
| W61A | 2.23 |
| E12V | 3.21 |
| Q57P | 2.19 |
| Q57E | 4.17 |
| Q57W | 3.83 |
| Q57S | 3.89 |
| V63C | 2.96 |
| V63G | 1.35 |
| V63K | 0.466 |

| Variant | folding stability dG [kcal/mol] |
| --- | --- |
| V63R | 0.762 |
| Q29V | 4.08 |
| Q29Y | 4.51 |
| Q29D | 3.75 |
| Q29E | 3.96 |
| Q29K | 3.75 |
| Q29S | 4.22 |
| Q29N | 3.83 |
| Q29W | 4.58 |
| V6I | 4.24 |
| V6L | 3.46 |
| V6G | 3.48 |
| V6W | 3.61 |
| V6E | 2.28 |
| V6H | 2.57 |
| K22R | 3.85 |
| K22S | 3.83 |
| K22Q | 4.05 |
| K22P | 2.37 |
| K22M | 3.85 |
| K22L | 3.99 |
| K22I | 4.01 |
| K22C | 3.65 |
| K22A | 3.71 |

| Variant | folding stability dG [kcal/mol] |
| --- | --- |
| E55K | 3.19 |
| E55V | 4.08 |
| E55M | 3.88 |
| E55W | 3.92 |
| E55Q | 3.7 |
| E55S | 3.56 |
| N33L | 3.58 |
| N33S | 3.88 |
| N33H | 3.53 |
| N33D | 3.9 |
| Y50C | 2.79 |
| Y50G | 0.705 |
| Y50H | 2.1 |
| E40F | 3.81 |
| E40T | 4.12 |
| E40W | 3.95 |
| E40Q | 3.91 |
| E40Y | 3.89 |
| E40D | 3.04 |
| E16I | 3.04 |
| E16C | 3.27 |
| E16W | 2.86 |
| E16D | 3.16 |
| E16V | 2.86 |

| Variant | folding stability dG [kcal/mol] |
| --- | --- |
| E16A | 3.8 |
| E16P | 2.15 |
| E16T | 3.34 |
| E16R | 3.08 |
| T67I | 4.09 |
| T67M | 3.98 |
| T67V | 3.96 |
| T67N | 3.32 |
| K30P | 3.79 |
| K30H | 4.05 |
| K30V | 4.33 |
| K30L | 4.03 |
| K30T | 4.14 |
| K30E | 3.78 |
| T69E | 3.82 |
| T69K | 3.73 |
| T69Q | 3.9 |
| T69I | 3.99 |
| T69A | 3.68 |
| T69M | 4.13 |
| V23C | 3.17 |
| V23A | 3.6 |
| V23H | 1.57 |
| V23P | 2.68 |

| Variant | folding stability dG [kcal/mol] |
| --- | --- |
| V23S | 2.02 |
| V23W | 2.67 |
| V23L | 3.07 |
| V23M | 3.08 |
| G45C | 3.29 |
| G45F | 3.97 |
| G45L | 3.42 |
| G45D | 3.57 |
| G45I | 2.91 |
| R56K | 4.11 |
| R56L | 3.84 |
| V54S | 1.63 |
| V54M | 3.85 |
| N59Y | 3.82 |
| N59K | 3.73 |
| N59R | 3.33 |
| T43E | 3.78 |
| Q5M | 4.07 |
| Q5A | 3.93 |
| Q5K | 3.86 |
| Q5P | 2.86 |
| Q5G | 3.64 |
| L39I | 3.67 |
| L39W | 2.03 |

| Variant | folding stability dG [kcal/mol] |
| --- | --- |
| L39T | 2.59 |
| L39N | -0.472 |
| L39A | 3.65 |
| R4H | 3.79 |
| R4F | 3.64 |
| R4A | 3.86 |
| R4D | 3.98 |
| L15E | 3.1 |
| L15R | 3.33 |
| L15W | 2.92 |
| L15C | 3.13 |
| L15Q | 3.42 |
| K7T | 4.58 |
| K7H | 3.57 |
| K7M | 4.8 |
| K7Q | 4.19 |
| K7G | 4.38 |
| K7R | 3.85 |
| K7D | 3.14 |
| I35V | 3.81 |
| I35H | 4.15 |
| I35P | 0.813 |
| I35F | 4.81 |
